The values that follow come from PMC5343618.

This test has as its target T1, alkaline phosphatase D (PhoD) with a C-terminal 6-His tag (PhoD-H) (B. subtilis 168), P42251.
T1 chain: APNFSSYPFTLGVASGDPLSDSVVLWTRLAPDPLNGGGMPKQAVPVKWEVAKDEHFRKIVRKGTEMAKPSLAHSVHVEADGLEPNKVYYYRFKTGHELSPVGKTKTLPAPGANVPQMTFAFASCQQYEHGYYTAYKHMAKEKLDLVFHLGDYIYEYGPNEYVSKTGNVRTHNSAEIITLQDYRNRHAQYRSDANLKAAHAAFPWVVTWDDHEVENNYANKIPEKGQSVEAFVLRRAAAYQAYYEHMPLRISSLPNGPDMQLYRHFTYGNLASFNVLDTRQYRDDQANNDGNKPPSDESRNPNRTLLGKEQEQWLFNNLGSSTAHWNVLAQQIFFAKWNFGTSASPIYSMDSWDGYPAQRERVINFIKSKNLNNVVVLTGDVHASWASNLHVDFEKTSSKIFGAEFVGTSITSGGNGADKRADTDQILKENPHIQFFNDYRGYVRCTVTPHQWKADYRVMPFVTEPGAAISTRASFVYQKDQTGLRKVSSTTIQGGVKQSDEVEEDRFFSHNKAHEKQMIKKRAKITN
The test can be described thus: cross-linking; in vivo cross-linking of B. subtilis cells with 0.5 mM DSS in PBS pH 8.3, 20 min at 37 °C; cells recovered 1 h in fresh medium; 10% SDS-PAGE with β-mercaptoethanol and anti-His immunoblot of cell and supernatant fractions. The settings on record: remark: other sources report otherwise.

B1: alkaline phosphatase D (PhoD) with a C-terminal 6-His tag (PhoD-H), P42251 57-583 (enzyme)
chain: T1 chain
Broadly, the stoichiometry N is a count of units in the complex or per binding partner. Molecule B1 gave a stoichiometry N of 2.
